Laboratory results taken from the supplement of paper PMC10065799, “High-throughput profiling of sequence recognition by tyrosine kinases and SH2 domains using bacterial peptide display” (eLife, 2023).

Legend:
Fer (mouse) = assay: phosphorylation enrichment, bacterial display (enrichment ratio); higher = better substrate or ligand; peptides without Tyr show the background
Fyn = Fyn (UniProt P06241); assay: as above
AncSZ = assay: as above
EPHB2 = EPHB2 (UniProt P29323); assay: as above
Fes = Fes (UniProt P07332); assay: as above
c-Abl (mouse) = assay: as above
FGFR3 = FGFR3 (UniProt P22607); assay: as above
Jak2 = Jak2 (UniProt O60674); assay: as above
FGFR1 = FGFR1 (UniProt P11362); assay: as above
EPHB1 = EPHB1 (UniProt P54762); assay: as above
Hck = Hck (UniProt P08631); assay: as above
c-Src = assay: as above
MERTK = MERTK (UniProt Q12866); assay: as above
c-Src SH2 = assay: SH2 binding enrichment of the phosphorylated peptide, bacterial display (enrichment ratio); higher = better substrate or ligand; peptides without Tyr show the background
SHP2-C SH2 = assay: as above
Grb2 SH2 = Grb2 SH2 (UniProt P62993); assay: as above
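For SH2 binding enrichment of the phosphorylated peptide, bacterial display in this document: peptide library displayed on the E. coli surface as eCPX fusions, selected cells deep-sequenced, score is each peptide's frequency after selection divided by its frequency in the input.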
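For phosphorylation enrichment, bacterial display in this document: 11-residue human phosphosite peptides and single-mutation variants displayed on the E. coli surface, counted by deep sequencing, each peptide's frequency after selection divided by its frequency in the unselected input library; frequency after pTyr selection over input frequency; kinase dosed for 20-30% of maximal phosphorylation in three min.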

Fyn, sequence (P06241 whole entry, looked up): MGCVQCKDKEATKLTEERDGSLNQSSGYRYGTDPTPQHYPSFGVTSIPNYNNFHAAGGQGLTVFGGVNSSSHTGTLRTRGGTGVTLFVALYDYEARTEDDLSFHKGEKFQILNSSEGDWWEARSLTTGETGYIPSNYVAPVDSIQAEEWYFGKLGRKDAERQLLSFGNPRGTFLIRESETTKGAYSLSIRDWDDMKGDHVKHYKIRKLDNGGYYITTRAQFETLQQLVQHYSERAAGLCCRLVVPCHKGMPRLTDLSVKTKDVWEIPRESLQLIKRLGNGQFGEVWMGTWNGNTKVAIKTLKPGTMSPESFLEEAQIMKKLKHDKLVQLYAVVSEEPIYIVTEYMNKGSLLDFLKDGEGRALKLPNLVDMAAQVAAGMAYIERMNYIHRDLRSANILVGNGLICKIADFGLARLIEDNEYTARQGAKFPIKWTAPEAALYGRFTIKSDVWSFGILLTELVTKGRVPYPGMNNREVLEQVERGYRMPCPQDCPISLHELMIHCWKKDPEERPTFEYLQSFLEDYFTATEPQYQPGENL
Grb2 SH2, sequence (P62993 whole entry, looked up, the tested form may be a part): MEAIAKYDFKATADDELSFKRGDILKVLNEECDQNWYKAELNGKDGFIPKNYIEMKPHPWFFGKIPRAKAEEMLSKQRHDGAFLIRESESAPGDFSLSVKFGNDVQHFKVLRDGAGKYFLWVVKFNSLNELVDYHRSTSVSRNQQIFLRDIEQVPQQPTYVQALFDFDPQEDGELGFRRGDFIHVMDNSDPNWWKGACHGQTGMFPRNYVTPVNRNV
EPHB1, sequence (P54762 whole entry, looked up): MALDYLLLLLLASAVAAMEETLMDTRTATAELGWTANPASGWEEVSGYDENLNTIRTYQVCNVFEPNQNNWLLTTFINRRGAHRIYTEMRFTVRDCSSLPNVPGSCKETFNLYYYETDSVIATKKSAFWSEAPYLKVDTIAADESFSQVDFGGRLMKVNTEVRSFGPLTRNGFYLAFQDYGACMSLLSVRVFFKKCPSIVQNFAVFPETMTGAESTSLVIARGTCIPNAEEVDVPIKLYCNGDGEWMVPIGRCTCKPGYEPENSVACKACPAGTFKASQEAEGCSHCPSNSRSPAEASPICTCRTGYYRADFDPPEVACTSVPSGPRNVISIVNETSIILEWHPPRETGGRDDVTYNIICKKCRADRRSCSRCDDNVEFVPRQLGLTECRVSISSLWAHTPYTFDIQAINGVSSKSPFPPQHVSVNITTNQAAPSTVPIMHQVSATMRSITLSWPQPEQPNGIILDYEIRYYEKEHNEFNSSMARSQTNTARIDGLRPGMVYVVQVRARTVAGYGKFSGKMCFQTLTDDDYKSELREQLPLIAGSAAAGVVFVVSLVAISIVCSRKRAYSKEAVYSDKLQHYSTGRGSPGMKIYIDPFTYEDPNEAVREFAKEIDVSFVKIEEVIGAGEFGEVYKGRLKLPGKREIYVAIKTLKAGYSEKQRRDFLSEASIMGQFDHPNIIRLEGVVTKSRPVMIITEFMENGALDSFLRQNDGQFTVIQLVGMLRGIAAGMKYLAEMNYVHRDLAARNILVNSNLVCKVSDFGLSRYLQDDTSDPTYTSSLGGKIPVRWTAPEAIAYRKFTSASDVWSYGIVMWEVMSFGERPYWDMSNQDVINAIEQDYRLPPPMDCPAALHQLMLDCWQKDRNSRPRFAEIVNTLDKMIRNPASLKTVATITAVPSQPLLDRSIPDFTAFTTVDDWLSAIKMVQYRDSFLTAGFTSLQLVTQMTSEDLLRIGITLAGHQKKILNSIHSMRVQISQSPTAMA
FGFR3, sequence (P22607 whole entry, looked up): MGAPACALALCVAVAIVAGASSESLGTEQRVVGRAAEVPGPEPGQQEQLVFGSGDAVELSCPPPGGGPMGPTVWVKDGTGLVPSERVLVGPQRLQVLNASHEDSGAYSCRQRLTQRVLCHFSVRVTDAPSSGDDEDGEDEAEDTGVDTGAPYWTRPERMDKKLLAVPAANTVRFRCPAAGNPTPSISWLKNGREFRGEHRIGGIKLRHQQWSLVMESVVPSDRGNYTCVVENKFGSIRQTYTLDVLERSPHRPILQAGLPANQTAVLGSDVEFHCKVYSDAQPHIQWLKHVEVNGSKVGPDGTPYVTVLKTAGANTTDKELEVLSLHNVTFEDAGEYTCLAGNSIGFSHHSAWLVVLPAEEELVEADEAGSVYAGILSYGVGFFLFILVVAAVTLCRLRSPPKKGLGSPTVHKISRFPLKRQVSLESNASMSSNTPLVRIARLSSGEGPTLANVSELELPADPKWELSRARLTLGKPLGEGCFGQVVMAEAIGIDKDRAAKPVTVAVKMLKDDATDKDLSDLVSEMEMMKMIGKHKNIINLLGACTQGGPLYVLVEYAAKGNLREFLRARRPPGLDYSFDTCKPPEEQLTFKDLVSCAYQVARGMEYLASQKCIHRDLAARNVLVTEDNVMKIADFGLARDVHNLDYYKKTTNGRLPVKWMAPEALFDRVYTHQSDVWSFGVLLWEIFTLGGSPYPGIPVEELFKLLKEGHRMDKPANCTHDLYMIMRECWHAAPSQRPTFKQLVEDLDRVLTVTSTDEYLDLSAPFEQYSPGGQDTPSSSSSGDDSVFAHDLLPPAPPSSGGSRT
EPHB2, sequence (P29323 whole entry, looked up): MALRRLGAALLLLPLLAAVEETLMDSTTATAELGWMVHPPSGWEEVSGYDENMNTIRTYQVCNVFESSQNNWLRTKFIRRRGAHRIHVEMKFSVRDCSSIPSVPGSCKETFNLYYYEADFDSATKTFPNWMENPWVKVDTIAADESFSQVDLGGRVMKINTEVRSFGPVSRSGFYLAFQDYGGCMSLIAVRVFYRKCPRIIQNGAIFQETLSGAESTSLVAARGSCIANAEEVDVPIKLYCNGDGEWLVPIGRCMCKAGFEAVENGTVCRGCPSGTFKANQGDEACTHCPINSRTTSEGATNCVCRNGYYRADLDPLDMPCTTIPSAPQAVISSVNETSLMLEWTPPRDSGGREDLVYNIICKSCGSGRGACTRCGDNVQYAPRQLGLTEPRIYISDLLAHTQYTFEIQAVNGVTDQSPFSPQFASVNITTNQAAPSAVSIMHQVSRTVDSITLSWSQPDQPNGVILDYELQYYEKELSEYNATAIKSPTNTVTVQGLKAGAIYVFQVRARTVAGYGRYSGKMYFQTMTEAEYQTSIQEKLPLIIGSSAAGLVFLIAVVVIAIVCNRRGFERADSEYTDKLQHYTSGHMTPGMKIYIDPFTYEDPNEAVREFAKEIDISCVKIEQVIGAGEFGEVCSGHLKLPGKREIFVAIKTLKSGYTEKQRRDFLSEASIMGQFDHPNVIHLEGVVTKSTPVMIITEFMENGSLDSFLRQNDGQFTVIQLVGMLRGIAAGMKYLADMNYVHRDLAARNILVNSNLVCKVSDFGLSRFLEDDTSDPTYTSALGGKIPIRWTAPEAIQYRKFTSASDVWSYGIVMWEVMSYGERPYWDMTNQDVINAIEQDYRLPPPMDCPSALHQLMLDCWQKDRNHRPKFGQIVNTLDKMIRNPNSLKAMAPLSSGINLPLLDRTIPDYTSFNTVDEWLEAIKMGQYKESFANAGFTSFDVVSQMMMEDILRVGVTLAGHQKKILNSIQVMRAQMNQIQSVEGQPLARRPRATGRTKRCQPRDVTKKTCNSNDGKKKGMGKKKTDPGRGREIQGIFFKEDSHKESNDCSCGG
MERTK, sequence (Q12866 whole entry, looked up): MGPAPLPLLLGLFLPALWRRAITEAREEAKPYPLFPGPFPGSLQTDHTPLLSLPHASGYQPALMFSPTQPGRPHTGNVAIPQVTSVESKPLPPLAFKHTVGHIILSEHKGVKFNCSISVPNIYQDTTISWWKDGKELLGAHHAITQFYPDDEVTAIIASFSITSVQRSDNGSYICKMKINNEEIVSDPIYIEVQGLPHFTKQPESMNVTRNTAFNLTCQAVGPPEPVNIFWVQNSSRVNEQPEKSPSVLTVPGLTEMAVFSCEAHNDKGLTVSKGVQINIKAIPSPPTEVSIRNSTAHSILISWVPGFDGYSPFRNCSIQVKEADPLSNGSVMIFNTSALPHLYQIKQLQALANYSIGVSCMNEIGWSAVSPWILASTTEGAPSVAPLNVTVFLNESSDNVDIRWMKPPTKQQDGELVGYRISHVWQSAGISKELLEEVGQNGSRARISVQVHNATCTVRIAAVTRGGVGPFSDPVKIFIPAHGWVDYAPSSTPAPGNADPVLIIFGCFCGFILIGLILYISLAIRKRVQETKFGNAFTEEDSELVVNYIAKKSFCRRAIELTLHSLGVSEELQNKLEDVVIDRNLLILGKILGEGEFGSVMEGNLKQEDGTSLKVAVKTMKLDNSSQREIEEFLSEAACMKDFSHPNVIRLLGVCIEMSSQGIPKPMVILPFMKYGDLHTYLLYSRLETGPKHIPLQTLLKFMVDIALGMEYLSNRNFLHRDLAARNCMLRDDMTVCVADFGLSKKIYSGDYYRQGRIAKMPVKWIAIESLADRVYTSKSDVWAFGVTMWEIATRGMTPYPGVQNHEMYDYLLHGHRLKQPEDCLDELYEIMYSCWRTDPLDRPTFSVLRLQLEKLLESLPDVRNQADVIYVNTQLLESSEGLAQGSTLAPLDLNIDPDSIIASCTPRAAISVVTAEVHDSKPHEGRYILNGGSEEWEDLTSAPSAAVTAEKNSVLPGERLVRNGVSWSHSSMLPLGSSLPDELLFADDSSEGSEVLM

Sequence	phosphorylation enrichment (Fer (mouse))	phosphorylation enrichment (Fyn)	phosphorylation enrichment (AncSZ)	phosphorylation enrichment (EPHB2)	phosphorylation enrichment (Fes)	phosphorylation enrichment (c-Abl (mouse))	phosphorylation enrichment (FGFR3)	phosphorylation enrichment (Jak2)	phosphorylation enrichment (FGFR1)	phosphorylation enrichment (EPHB1)	phosphorylation enrichment (Hck)	phosphorylation enrichment (c-Src)	phosphorylation enrichment (MERTK)	SH2 binding enrichment (c-Src SH2)	SH2 binding enrichment (SHP2-C SH2)	SH2 binding enrichment (Grb2 SH2)
CTTIHFNFMCN [TP53_Y234_Y234F_YF]	0.569	0.484	1.07	0.656	1.31	0.824	0.83	1.33	0.614	0.604	0.582	0.507	0.525	1.93	2.02	2.01
CTTIHYNDMCN [TP53_Y234_Y236D]	0.421	0.422	1.03	0.528	0.85	0.589	0.539	0.724	0.485	0.451	0.455	0.492	0.396	2.42	0.658	0.756
CTTIHYNFMCF [TP53_Y234_N239Y_YF]	0.671	0.414	1.04	0.522	1.12	0.683	0.738	0.913	0.621	0.608	0.451	0.474	0.409	1.58	2.01	1.95
CTTIHYNFMWN [TP53_Y234_C238W_YF]	1.04	0.508	1.43	0.727	1.66	1.09	0.981	1.5	0.621	0.725	0.543	0.59	0.717	0.669	0.802	0.924
CTTIHYNYLCN [TP53_Y234_M237L]	0.568	0.51	0.873	0.491	0.84	0.479	0.594	0.655	0.505	0.482	0.536	0.394	0.436	4.93	4.87	1.45
CTTIRYNYMCN [TP53_Y234_H233R]	0.479	0.464	0.787	0.583	0.81	0.491	0.544	0.674	0.475	0.461	0.449	0.417	0.457	3.56	1.55	1.48
CTTLHYNYMCN [TP53_Y234_I232L]	1.41	0.492	0.858	0.618	1.01	0.675	0.745	0.827	0.811	0.808	0.547	0.508	0.558	4.31	2.06	1.21
DAHFTYSRYPW [LY75_Y888_D884A]	0.5	2.4	1.16	5.6	0.885	1.19	0.641	1.02	0.716	2.76	3.76	3.24	1.27	0.51	0.761	0.817
DAKTIYDFTDT [PDK1_Y136_A134T]	1.61	3.52	1.07	0.604	1.07	0.724	0.729	0.876	0.508	0.696	1.33	3.32	1.48	0.46	0.58	0.748
DDEVFYSPRSL [OTC_Y317]	1.57	0.574	1.67	0.597	1.36	1.22	0.847	1.36	0.504	0.597	2	0.87	0.592	0.47	0.647	0.774
DDIPLYLKGGV [COX7A2_Y44_E40D]	0.401	0.459	1.01	0.701	1.12	0.673	0.737	1.02	0.496	0.525	0.513	0.435	0.41	0.479	0.663	0.862
DEDEEYEFMNR [ERBB3_Y1197_YF]	0.487	0.592	1.26	0.515	1.17	0.692	0.788	0.965	0.724	0.503	0.579	0.456	0.538	0.664	1.28	1.04
DEGVNHFMSKG [FBXO8_Y156_Y156H]	0.357	0.443	0.61	0.424	0.64	0.516	0.504	0.42	0.436	0.433	0.364	0.297	0.324	0.464	0.778	0.718
DFGSGYPNDPK [RNASEH2A_Y210_YF]	0.39	0.382	0.778	0.469	0.678	0.562	0.579	0.906	0.397	0.516	0.423	0.464	0.424	0.409	0.712	0.749
DGTIVYTGLET [USH2A_Y4487]	0.468	0.706	0.821	0.528	1.01	0.764	0.636	0.901	0.755	0.525	0.773	1.05	0.465	0.844	2.8	0.829
DHLASYLDKVR [KRT10_Y160_R156H]	0.363	0.406	0.585	0.477	0.677	0.473	0.469	0.639	0.46	0.369	0.439	0.457	0.453	0.44	0.714	0.776
DIPIRYSITGV [CDH4_Y205]	0.402	0.447	0.822	0.474	0.827	0.641	0.478	0.85	0.444	0.391	0.45	0.367	0.405	0.53	0.972	0.774
